Measurements reported in IntAct's records for PubMed 23518348.

B1: Androgen receptor (Homo sapiens), P10275 (parent)
chain: MEVQLGLGRVYPRPPSKTYRGAFQNLFQSVREVIQNPGPRHPEAASAAPPGASLLLLQQQQQQQQQQQQQQQQQQQQQQQETSPRQQQQQQGEDGSPQAHRRGPTGYLVLDEEQQPSQPQSALECHPERGCVPEPGAAVAASKGLPQQLPAPPDEDDSAAPSTLSLLGPTFPGLSSCSADLKDILSEASTMQLLQQQQQEAVSEGSSSGRAREASGAPTSSKDNYLGGTSTISDNAKELCKAVSVSMGLGVEALEHLSPGEQLRGDCMYAPLLGVPPAVRPTPCAPLAECKGSLLDDSAGKSTEDTAEYSPFKGGYTKGLEGESLGCSGSAAAGSSGTLELPSTLSLYKSGALDEAAAYQSRDYYNFPLALAGPPPPPPPPHPHARIKLENPLDYGSAWAAAAAQCRYGDLASLHGAGAAGPGSGSPSAAASSSWHTLFTAEEGQLYGPCGGGGGGGGGGGGGGGGGGGGGGGEAGAVAPYGYTRPPQGLAGQESDFTAPDVWYPGGMVSRVPYPSPTCVKSEMGPWMDSYSGPYGDMRLETARDHVLPIDYYFPPQKTCLICGDEASGCHYGALTCGSCKVFFKRAAEGKQKYLCASRNDCTIDKFRRKNCPSCRLRKCYEAGMTLGARKLKKLGNLKLQEEGEASSTTSPTEETTQKLTVSHIEGYECQPIFLNVLEAIEPGVVCAGHDNNQPDSFAALLSSLNELGERQLVHVVKWAKALPGFRNLHVDDQMAVIQYSWMGLMVFAMGWRSFTNVNSRMLYFAPDLVFNEYRMHKSRMYSQCVRMRHLSQEFGWLQITPQEFLCMKALLLFSIIPVDGLKNQKFFDELRMNYIKELDRIIACKRKNPTSCSRRFYQLTKLLDSVQPIARELHQFTFDLLIKSHMVSVDFPEMMAEIISVQVPKILSGKVKPIYFHTQ
partner: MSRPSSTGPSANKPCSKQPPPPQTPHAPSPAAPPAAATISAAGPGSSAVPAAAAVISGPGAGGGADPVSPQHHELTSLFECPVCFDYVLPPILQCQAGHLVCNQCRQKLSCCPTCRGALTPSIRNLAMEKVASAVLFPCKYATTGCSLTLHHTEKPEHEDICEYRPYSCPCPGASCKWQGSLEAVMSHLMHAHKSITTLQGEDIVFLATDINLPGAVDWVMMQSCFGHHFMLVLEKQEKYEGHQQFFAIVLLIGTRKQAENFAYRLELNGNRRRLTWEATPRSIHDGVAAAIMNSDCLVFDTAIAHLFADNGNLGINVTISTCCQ

Variants of: B1
Settings: with siah2_mouse Siah2, Q06986

Effect of a mutation on the interaction, decreasing interaction:
Q799E
V731M
H875Y
F755L
T878A
L702H
V716M
R727L
